From article PMC9896449 come the findings set out here.

Test [1] has as its target BiShAb0201 (ShAb02 VNAR - (GGGGS)5 - ShAb01 VNAR - human IgG1 Fc) (nurse shark (Ginglymostoma cirratum)). The test can be described thus: BLI.
For test [2], the target named is ShAb01H02K (knob-in-hole heterodimer of ShAb01-Fc and ShAb02-Fc) (nurse shark (Ginglymostoma cirratum)). The test can be described thus: BLI.

What is called Kd is the constant that tells how readily two partners part at equilibrium. Read a high Kd as a looser complex. Usually koff stands for a measure of how fast the partners let go of each other. The kon is the rate constant with which the complex forms. Consider “SARS-CoV-2 WA-1 spike receptor binding domain (RBD) (from UniProt P0DTC2 331-527) (domain or fragment)”, for which, in test [1], the Kd was 1.07 nM, the off-rate (koff) worked out at 2.82e-05 s⁻¹ and the kon was found to be 26300 M⁻¹ s⁻¹. In addition, in test [2], the dissociation constant (Kd) was found to be 0.57 nM, the koff was determined as 6.98e-05 s⁻¹ and the kon stood at 122000 M⁻¹ s⁻¹.
